The target of the assay is T1, GST-p53 fusion protein (UniProt P04637 1-393).
T1 construct: p53 fused to GST
The assay is described as follows: pull-down; 10 μl GST beads bound with 2 μg of GST or GST-p53, purified Flag-tagged SMG7 proteins in solution; binding buffer BC100 with 1 μg/μl BSA, overnight at 4 °C, five washes, western blot. The conditions noted are these: both partners purified. For orientation: A western blot detects proteins with antibodies after separation by electrophoresis.

Data on one molecule can be found in paper PMC6739308 (Scientific Reports, 2019).

T1 sequence (P04637 whole entry, the tested form may be a part): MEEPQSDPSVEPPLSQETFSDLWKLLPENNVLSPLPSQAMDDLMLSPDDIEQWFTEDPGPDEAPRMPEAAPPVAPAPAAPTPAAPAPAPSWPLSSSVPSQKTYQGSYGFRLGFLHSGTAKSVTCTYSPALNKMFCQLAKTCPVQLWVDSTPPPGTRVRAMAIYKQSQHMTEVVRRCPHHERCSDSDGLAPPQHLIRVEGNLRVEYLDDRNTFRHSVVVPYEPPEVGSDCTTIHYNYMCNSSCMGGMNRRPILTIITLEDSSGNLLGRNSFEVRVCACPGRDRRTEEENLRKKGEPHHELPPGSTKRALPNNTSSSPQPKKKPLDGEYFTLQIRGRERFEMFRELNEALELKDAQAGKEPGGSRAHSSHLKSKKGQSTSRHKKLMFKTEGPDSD

B1: purified FH-SMG7 C-terminal fragment 815–1091aa (domain or fragment, UniProt Q92540-2 815-1091, looked up)
chain: PSEVKVPEFYWDSSYSMADNRSVMAQQANIDRRGKRSPGVFRPEQDPVPRMPFEKSLLEKPSELMSHSSSFLSLTGFSLNQERYPNNSMFNEVYGKNLTSSSKAELSPSMAPQETSLYSLFEGTPWSPSLPASSDHSTPASQSPHSSNPSSLPSSPPTHNHNSVPFSNFGPIGTPDNRDRRTADRWKTDKPAMGGFGIDYLSATSSSESSWHQASTPSGTWTGHGPSMEDSSAVLMESLKSIWSSSMMHPGPSALEQLLMQQKQKQQRGQGTMNPPH
notes: numbers count on a form of 1091 residues; source: purified; not shown: Flag, N-terminal, kept; HA, N-terminal, kept
For the molecule B1, the binding result is “binds”.
